The values below come from PMC5657617, “The GYF domain protein PSIG1 dampens the induction of cell death during plant-pathogen interactions” (PLoS Genetics, 2017).

B1: HisMBP-SMG7-C (domain or fragment, Arabidopsis thaliana, UniProt A9QM73 549-1059, looked up)
chain: PKEKKARIKRIFAAGKALTSVIKVDQNHVYFDSKKKKFLVGVKPADDFLDSHSSPPKACNALQDNQVMIDHNSPIMQLDQQIYMGEEDDDDEVIVFKPLVTEKRKEASDQIYVPSGGFRKSDQVTTMGDFKALSGSDVAFHENQILQARGNASIQVPASVGANLLGPLQPSTQSQAMHMQQVQTQVQVPASVGANLLGLLLTSTQSQAMHMQQVQTQAVNPQPAQSLAASRLQPIQSQVAQPLPSRVVHFQQTQAQVSHVSPAHSQSTSFGGGSKWSPEEAASLASSLSGFAQLGNGHVMRNEMQGNHGVSYYPAHSLPVHQSYNGNGMGGMPYSQSRTPEAVFPPKIDPVLSSGVVADGLGVQSSLAKKNPISRAFRHLGPPPGFNSVPAKLQKEPAPGSELSGNNHLPVDDYSWLDGYQAQSSRGVGLNSSLNYATSGKPEHLGSTGNGLNGPANFPFPGKQVPTSQVQADFPYFQNPQKDNFVDKNHQSTQLPEQYQGQSTWSSRHFV
notes: also called AtSMG7-C (549-1059); C-terminal half of SMG7; source: Escherichia coli Rosetta-gami 2 (DE3), purified (Dextrin-Sepharose)
B2: HisMBP-SMG7 (natural protein, Arabidopsis thaliana, UniProt A9QM73 1-1059, looked up)
chain: MMTLQMDKTTASSSWERAKSIYDEIAELANKRQKAGNPPDPNLLQLLREKYEAIILESHTFSEQHNIEIPLWQLHYKRIEYFRLHINRVLASSTSTAAQNVKGPSKAEQIAQLKLQFRTFLSEATGFYHDMILKIRSKYGLPLGSFSEDQQSQNLSDKDGKELAEVQKALKSCHRCLIYLGDLARYKGMYAEGDSRSRQYASASSYYLQAASLWPASGNPHHQLAIVASYSRDEFVTTYRYFRSLAVEYPFPTARDNLIVAFDKNRQSYEKLFVPSKDSSKRLTGKGRGKGADISLKDATLVAGPEKDKVTIANEMLKAFSIRFVHLNGILFTRTSLETFFDVLASTSSSLREVISLGSAKELTLGIDTSDSALFIVRVVTMLIFSVHNSKKETEGQSYAEIVQRVEPARNSLTASFELLGLVIEKCVQLGDPSSSYFLPGVLVFVEWLACCPDIALGSDPDDRQTAVRNSFWNQFVVFFNQVLSLGPTFIDDVEDETCFSNMSLYDERETENRLALWEDYELRGFLPLLPAQTILNFSRKHSFGTEGPKEKKARIKRIFAAGKALTSVIKVDQNHVYFDSKKKKFLVGVKPADDFLDSHSSPPKACNALQDNQVMIDHNSPIMQLDQQIYMGEEDDDDEVIVFKPLVTEKRKEASDQIYVPSGGFRKSDQVTTMGDFKALSGSDVAFHENQILQARGNASIQVPASVGANLLGPLQPSTQSQAMHMQQVQTQVQVPASVGANLLGLLLTSTQSQAMHMQQVQTQAVNPQPAQSLAASRLQPIQSQVAQPLPSRVVHFQQTQAQVSHVSPAHSQSTSFGGGSKWSPEEAASLASSLSGFAQLGNGHVMRNEMQGNHGVSYYPAHSLPVHQSYNGNGMGGMPYSQSRTPEAVFPPKIDPVLSSGVVADGLGVQSSLAKKNPISRAFRHLGPPPGFNSVPAKLQKEPAPGSELSGNNHLPVDDYSWLDGYQAQSSRGVGLNSSLNYATSGKPEHLGSTGNGLNGPANFPFPGKQVPTSQVQADFPYFQNPQKDNFVDKNHQSTQLPEQYQGQSTWSSRHFV
notes: SMG7, Arabidopsis thaliana, At5g19400; open reading frame amplified from Arabidopsis seedling (Col-8) cDNA; residues 1-1059 by the limits of its two halves; also called AtSMG7; HisMBP-tagged SMG7; source: Escherichia coli Rosetta-gami 2 (DE3), purified (Dextrin-Sepharose)
B3: GST-PSIG1^1-606 (domain or fragment)
chain: not shown
notes: PSIG1, Arabidopsis thaliana, At5g42950, residues 1-606, with the GYF domain and without its own PPGF motif; Vector pGEX4T-3; source: Escherichia coli Rosetta-gami 2 (DE3), purified (Glutathione-Sepharose)

The target in assay [1] is T1, GST-PSIG1 (PLANT SMY2-TYPE ILE-GYF DOMAIN-CONTAINING PROTEIN 1, full length) (Arabidopsis thaliana, UniProt Q9FMM3 1-1714).
T1 construct: PSIG1 (EXA1/MUSE11), Arabidopsis thaliana, At5g42950; whole ORF cloned into pGEX4T-3; the text calls it full-length PSIG1; Vector pGEX4T-3, cloned between SalI and NotI sites; also called GST-tagged PSIG1; EXA1; source: Escherichia coli Rosetta-gami 2 (DE3), purified (Glutathione-Sepharose)
T1 sequence (Q9FMM3 whole entry, the tested form may be a part): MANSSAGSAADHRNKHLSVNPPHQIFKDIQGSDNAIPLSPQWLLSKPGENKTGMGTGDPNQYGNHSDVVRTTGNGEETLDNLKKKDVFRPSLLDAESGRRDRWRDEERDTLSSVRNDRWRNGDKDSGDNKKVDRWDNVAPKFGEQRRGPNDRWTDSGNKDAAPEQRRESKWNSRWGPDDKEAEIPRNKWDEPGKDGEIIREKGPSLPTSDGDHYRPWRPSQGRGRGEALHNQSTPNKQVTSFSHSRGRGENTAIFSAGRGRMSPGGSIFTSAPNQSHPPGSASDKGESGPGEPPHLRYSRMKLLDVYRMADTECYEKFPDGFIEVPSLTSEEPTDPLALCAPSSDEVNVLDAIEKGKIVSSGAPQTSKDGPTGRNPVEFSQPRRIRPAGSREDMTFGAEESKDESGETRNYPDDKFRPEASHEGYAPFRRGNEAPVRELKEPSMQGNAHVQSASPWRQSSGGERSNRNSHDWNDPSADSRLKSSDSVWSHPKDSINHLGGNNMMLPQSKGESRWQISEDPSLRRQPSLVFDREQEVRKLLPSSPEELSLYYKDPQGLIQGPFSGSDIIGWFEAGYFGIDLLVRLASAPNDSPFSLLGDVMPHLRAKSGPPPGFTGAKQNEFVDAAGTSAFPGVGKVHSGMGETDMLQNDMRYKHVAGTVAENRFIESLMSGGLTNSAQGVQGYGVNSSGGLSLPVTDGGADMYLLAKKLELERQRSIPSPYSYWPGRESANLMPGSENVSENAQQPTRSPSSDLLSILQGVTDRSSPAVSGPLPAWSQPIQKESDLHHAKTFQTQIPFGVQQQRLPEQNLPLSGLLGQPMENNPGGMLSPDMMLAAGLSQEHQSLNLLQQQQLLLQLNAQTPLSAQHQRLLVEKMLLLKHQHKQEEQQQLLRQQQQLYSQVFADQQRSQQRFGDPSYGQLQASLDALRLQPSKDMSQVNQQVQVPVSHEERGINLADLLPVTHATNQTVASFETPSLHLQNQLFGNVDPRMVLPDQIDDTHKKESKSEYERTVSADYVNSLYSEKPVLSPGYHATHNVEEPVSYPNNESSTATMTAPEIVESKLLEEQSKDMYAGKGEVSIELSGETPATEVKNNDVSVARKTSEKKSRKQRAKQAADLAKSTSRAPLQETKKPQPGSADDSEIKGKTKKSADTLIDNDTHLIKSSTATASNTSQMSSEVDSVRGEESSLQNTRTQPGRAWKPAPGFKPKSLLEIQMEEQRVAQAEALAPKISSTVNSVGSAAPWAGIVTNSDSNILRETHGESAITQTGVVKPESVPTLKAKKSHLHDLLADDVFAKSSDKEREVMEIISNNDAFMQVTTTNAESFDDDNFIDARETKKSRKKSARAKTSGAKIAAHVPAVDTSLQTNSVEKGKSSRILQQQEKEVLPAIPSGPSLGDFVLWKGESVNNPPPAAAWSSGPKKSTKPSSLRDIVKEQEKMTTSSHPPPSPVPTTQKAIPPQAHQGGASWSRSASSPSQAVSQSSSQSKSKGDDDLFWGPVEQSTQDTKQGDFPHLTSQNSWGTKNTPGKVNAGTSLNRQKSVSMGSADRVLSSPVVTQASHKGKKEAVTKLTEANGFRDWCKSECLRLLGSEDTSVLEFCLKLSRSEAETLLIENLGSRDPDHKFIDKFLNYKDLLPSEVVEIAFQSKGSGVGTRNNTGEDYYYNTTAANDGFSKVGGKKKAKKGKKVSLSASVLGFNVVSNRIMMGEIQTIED
Briefly: pull-down; GST-PSIG1 proteins and HisMBP-SMG7 proteins mixed in 50 mM Tris-HCl pH 7.5, 150 mM NaCl, 1 mM DTT, 0.1% Triton X-100; Glutathione-Sepharose beads, 2 h at 4°C; washed three times with 300 mM NaCl buffer; detected by anti-His or anti-GST immunoblot or CBB. Conditions: both partners purified. (Immunoblotting shows a protein as a band on a membrane.)

The assay “HisMBP-SMG7” has as its target B2. The assay is described as above. The following applies: both partners purified.

Turning to B1, the binding result in assay [1] is on record as “binds”.

Take B2: the binding result in assay [1] was “binds”. For the molecule B3, the binding result with HisMBP-SMG7 is given as “binds”.
